Results as given in patent US6989144.

Legend:
Test in all cases: cell ELISA: soluble GPVI-Fc (0.45-1000 nM) competing with GPVI-U937 cells for 100 nM scFv
scFv clone A10 = target: T1, scFv clone A10
T1 construct: human scFv from a phage display library; detected through an HA tag, purified through a polyHis tail

scFv clone C3 = target: T2, scFv clone C3
T2 construct: human scFv from a phage display library

scFv clone B4 = target: T3, scFv clone B4
T3 construct: human scFv from a phage display library

IC50 (scFv clone A10): 4.5 nM
IC50 (scFv clone C3): 38 nM
IC50 (scFv clone B4): 5 nM
B1: soluble human GPVI-Fc (extracellular domain of GPVI fused to Fc; hGPVI-human IgG1Fc) (Fc fusion)
chain: QSGPLPKPSLQALPSSLVPLEKPVTLRCQGPPGVDLYRLEKLSSSRYQDQAVLFIPAMKRSLAGRYRCSYQNGSLWSLPSDQLELVATGVFAKPSLSAQPGPAVSSGGDVTLQCQTRYGFDQFALYKEGDPAPYKNPERWYRASFPIITVTAAHSGTYRCYSFSSRDPYLWSAPSDPLELVVTGTSVTPSRLPTEPPSSVAEFSEATAELTVSFTNKVFTTETSRSITTSPKESDSPAGPARQYYTKGN
notes: also called hGPVI-hIgG1Fc; hrGPVI; not shown: human IgG1 Fc
